Reference: patent EP0797662B1

Target: extracellular domain of the aFGF receptor (sFGFR)
Assay: ITC, aFGF and the extracellular domain of its receptor

Chain of aFGF (P05230 16-155): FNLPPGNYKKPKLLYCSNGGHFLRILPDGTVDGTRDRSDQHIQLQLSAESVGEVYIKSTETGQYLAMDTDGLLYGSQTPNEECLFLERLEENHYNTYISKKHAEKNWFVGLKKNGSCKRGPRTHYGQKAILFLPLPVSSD

Substance: aFGF
- Kd: 500 nM
